Test [1] concerns the target CgnE (Chondromyces crocatus CM c5). Description: MST; microscale thermophoresis of two components; which one was titrated is told only in Fig. 3c.
Test [2] addresses CgnB (Chondromyces crocatus CM c5). Described as above.

Sequence of CgnE (Chondromyces crocatus CM c5) (main, as listed by the source): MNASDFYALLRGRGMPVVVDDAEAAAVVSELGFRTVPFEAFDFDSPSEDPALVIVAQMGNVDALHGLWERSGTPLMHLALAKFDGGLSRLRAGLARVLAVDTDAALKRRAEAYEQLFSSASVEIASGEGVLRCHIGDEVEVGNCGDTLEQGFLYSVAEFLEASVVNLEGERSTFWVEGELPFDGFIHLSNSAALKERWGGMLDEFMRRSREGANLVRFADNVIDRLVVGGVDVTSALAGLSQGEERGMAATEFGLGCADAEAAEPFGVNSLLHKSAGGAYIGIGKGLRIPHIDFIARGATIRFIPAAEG

B1: CgnA, crocagin precursor peptide (peptide)
chain: MKKTIKQISAGDRSKKGNIYW
modifications: not checked
By Kd is commonly meant a measure of binding affinity in units of concentration. Low values mean tighter binding, high ones weaker binding. For B1, the Kd in test [1] was determined as 1.8 µM; in test [2], 10.5 µM.

Source of the values: paper PMC10070186, “Unusual peptide-binding proteins guide pyrroloindoline alkaloid formation in crocagin biosynthesis” (Nature Chemistry, 2023).
